In article PMC3518043 one finds decrease in signal against unmodified H3 data, which are given here for 2 substances.

In this assay the target is Histone H3 N-terminal peptide trimethylated at lysine-4 (celluspot peptide #1). The experiment in a line: peptide or protein array.

Chain of GST-tagged CHD5 PHD2 finger (413-468) (Q8TDI0 413-468): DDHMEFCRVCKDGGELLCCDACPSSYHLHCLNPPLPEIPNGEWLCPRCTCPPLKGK
Chain of GST-tagged CHD5 PHD1 finger (338-393) (Q8TDI0 338-393): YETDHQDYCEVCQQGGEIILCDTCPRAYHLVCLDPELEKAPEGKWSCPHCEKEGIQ

Regarding “GST-tagged CHD5 PHD2 finger (413-468) (from UniProt Q8TDI0 413-468) (domain or fragment)”, the decrease in signal against unmodified H3 was greater than 90%.
“GST-tagged CHD5 PHD1 finger (338-393) (from UniProt Q8TDI0 338-393) (domain or fragment)” gave a decrease in signal against unmodified H3 greater than 90%.
